Key:
CD20 = molecular target: T1, CD20 (Homo sapiens, UniProt P11836); test: Blocking of fluorescent anti-human CD20 labeling of Daudi cells (flow cytometry); type: cell-based; conditions: Daudi cells pretreated before CD20 labeling
T1 construct: endogenous in cells; host or cells: Daudi human B-cell lymphoma cells
T1 sequence (P11836 1-297): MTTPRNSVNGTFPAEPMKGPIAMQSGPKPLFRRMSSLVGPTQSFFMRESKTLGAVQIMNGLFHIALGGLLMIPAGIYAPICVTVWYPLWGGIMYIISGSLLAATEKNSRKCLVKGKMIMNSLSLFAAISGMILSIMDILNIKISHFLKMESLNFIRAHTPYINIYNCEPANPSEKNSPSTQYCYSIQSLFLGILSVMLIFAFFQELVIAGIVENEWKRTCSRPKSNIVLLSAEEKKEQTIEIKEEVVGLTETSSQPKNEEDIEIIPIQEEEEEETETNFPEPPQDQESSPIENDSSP
Description: CD20 positive Daudi lymphoma cells were labeled with fluorescent tagged anti-human CD20 or isotype matched control in panel F and A, respectively, and analyzed by flow cytometry.

ABX [1] = molecular target: T2, ABX (Homo sapiens, UniProt P02768); test: Bio-Layer Interferometry (BLItz) binding of antibody to ABX; conditions: for binding affinity to ABX (in words): BLItz; for dependence of binding affinity to ABX on pH / temperature: pH 3, 5, 7, 9, BEV also RT, 37° C., 58° C.
T2 construct: purchased Celgene Corporation, Summit, N.J
Description: The association and dissociation constants were calculated using the BLItz software.

[2] = tested on: Daudi human lymphoma cells; test: Daudi lymphoma xenotransplant in athymic nude mice; type: in vivo; conditions: ABX 30 mg/kg, rituximab 12 mg/kg
Description: Tumor response was determined at day 7 post-treatment by the percent change in tumor size from the first day of treatment.
(§1) To test tumor efficacy, 1×10^6 A375 human melanoma cells were implanted into the right flank of athymic nude mice (Harlan Sprague Dawley, Indianapolis, Ind.). […] Tumor size was monitored 3 times/week and tumor volume was calculated with the following equation: (length×width^2)/2. Mice were sacrificed when the tumor size equaled 10% of the mouse body weight or about 2500 mm^3. The day 7 percent change from baseline was calculated as follows: [(tumor size on treatment day-tumor size on day 7)/tumor size on treatment day]×100.
On day 7 post treatment, tumors were measured and the percent change in tumor size from baseline was calculated.

ABX [3] = molecular target: T2, ABX; test: Binding of cisplatin to ABX (free cisplatin in supernatant by HPLC); type: physicochemical; conditions: ABX 5 mg/ml, cisplatin 0.5 mg/ml, room temperature, 30 minutes
[4] = tested on: A375 human melanoma cells; test: A375 human melanoma xenograft in athymic nude mice; type: in vivo; conditions: BEV 12 mg/kg, ABX 30 mg/kg, tumors about 700 mm^3 at treatment
Description: In vivo experiments were performed at least 2 times. The number of mice required for those experiments was determined by power analysis. Mouse tumors were measured 2-3 times/week and mice were sacrificed when the tumor was 10% by weight. […] The end point of the mouse studies was median survival. Kaplan-Meier curves were generated and Mantle-Cox test was performed to determine significance of median survival between treatment groups. The in vitro results presented are representative of at least 5 repeated experiments. Statistical analyses of in vitro and in vivo percent change from baseline experiments were done using the Student's t-test.
as §1
The ABC complex was tested in the A375 melanoma xenotransplant model relative to each drug alone and AB160.
The effect of AB225 was assayed in animals as set forth above.

[5] = tested on: A375 human melanoma cells; test: A375 xenograft, BEV pretreatment follow up study; type: in vivo, athymic nude mice; conditions: day 7 and day 10 post treatment; BEV 12 mg/kg, ABX 30 mg/kg
Description: Data is represented at day 7-post and day 10-post treatment as tumor volume in mm^3. FIGS. 11A-E track tumor size over 10 days. […] See also FIG. 11 F and FIG. 11 G.

| Compound | blocking of CD20 binding of fluorescent anti-CD20 (CD20) | binding affinity to ABX (in words) (ABX [1]) | dependence of binding affinity to ABX on pH / temperature (ABX [1]) | median survival [2] [days] | cisplatin remaining in the supernatant (ABX [3]) [%] | median survival [4] [days] | average tumor volume [5] |
| --- | --- | --- | --- | --- | --- | --- | --- |
| rituximab | specifically blocked | picomolar range | decreased with higher pH | 12 | – | – | – |
| N.N.[Cl][Pt][Cl] [cisplatin] | – | – | – | – | 40 | – | – |
| bevacizumab | – | picomolar range | both pH- and temperature-dependent | – | – | 14 | not therapeutic |
